US20130336988A1, “METHODS FOR TREATING EARLY STAGE OR MILD NEUROLOGICAL DISORDERS” (NEW YORK UNIVERSITY, priority 2010, published 2013)

What was measured:
p75^NTR/SorCS2 and Trio = biological target: T1, p75^NTR/SorCS2 and Trio (Homo sapiens, UniProt P08138+Q96PQ0); test: Co-immunoprecipitation of Trio with p75NTR/SorCS2 after proNT treatment of HT1080 cells; format: cell-based; conditions: HT1080 cells expressing p75NTR and SorCS2; 20 min incubation; IP anti-p75NTR, Western blot
T1 construct: HA; expressed in transfected cells; host or cells: HT-1080 cells
Method: HT-1080 cells were transfected with HA-p75^NTR and myc-SorCS2. 24-48 hours later, cells were treated with 25 ng/ml proNGF for 20 min where indicated. Cells were lysed with lysis buffer (50 mM Tris-HCl pH 8.0, 140 mM NaCl, 2 mM EDTA, 1% NP40, 10% glycerol) supplemented with protease inhibitors and complexes were immunoprecipitated using anti-HA agarose. To map the Trio domain required for the interaction with p75^NTR, 293T cells were transfected with HA-p75^NTR and constructs of the individual Trio domains. After 24 hours, cells were lysed as described above, and complexes were immunoprecipitated using anti-HA agarose or anti-Myc agarose as indicated.

Rac = Rac activity assay (GST-Pak-CRIB pull-down of activated Rac); format: cell-based, mouse; conditions: mouse E15 DIV2 cortical neurons; 20 min; proBDNF with K252a
Method: Rac activity assays were performed as described previously (NEUBRAND, V. E. et al., Journal of Cell Science 123:2111-2123 (2010)). […] Cells were lysed in lysis buffer supplemented with 10 mM MgCl, lysates were cleared by centrifugation at 9000 g for 1 min, and cleared lysates were incubated with GST or GST-Pak-CRIB beads for 30 min at 4° C. Beads were washed and isolated active Rac was analyzed by Western blot. As a control, extra lysates were incubated with 0.1 mM GDP or 0.1 mM GTPγS for 30 min at room temperature before incubation with GST-Pak-CRIB beads. Western blots were analyzed by densitometry using ImageJ software, and isolated active Rac was normalized to the input.
GST and GST-Pak-CRIB proteins were expressed in E. coli BL21DE3 cells at 25° C. for 3 hours. Bacteria were disrupted by incubation with PBS supplemented with lysozyme on ice for 30 min and subsequent addition of 1 mM MgCl2, 0.1% TritonX-100 and 0.1 mg/ml DNAse for an additional 30 min. Bacterial lysates were cleared by centrifugation for 5 min at 3000 g and cleared lysates were incubated with glutathione sepharose. Beads were washed and the purity of the recombinant proteins was analyzed by Coomassie blue staining. 20 μg of sepharose coupled purified protein was used per reaction.

[1] = test system: E15 DIV3 mouse hippocampal neurons; test: proNT-induced growth cone collapse in cultured hippocampal neurons (live imaging and immunofluorescence); format: cell-based; conditions: for growth cone collapse: p75NTR-positive cells, 20 min exposure, 10 ng/ml proNGF, 10 ng/ml proBDNF with K252a, 5 ng/ml NGF
Method: To assay which pathways are involved in filopodial collapse, 5-10 ng/ml proNGF, 10 ng/ml proBDNF, 25-50 ng/ml BDNF (Peprotech) or 25-100 ng/ml NGF (Harlan) was added to E15 primary hippocampal neurons for 20 min before fixation. In some cases, cells were pretreated with 100 nM K-252a (Calbiochem) for 20 min, 100 nM Gö6976 (Calbiochem) for 1 hour, 5 μM EHT1864 (Sigma) for 30 min or 100 nM ITX3 (ChemBridge Corporation, cat. no. 6007262) for 45 min. To block SorCS2, cells were incubated with 20 μg/ml anti-SorCS2 or control IgG for 20 min on ice before proNGF addition at 37° C.
DIV3 hippocampal neurons were fixed in 4% paraformaldehyde/20% sucrose for 10 min. The fixative was quenched with 50 mM NH4Cl in PBS for 5 min and cells were permeabilized with 0.1% TritonX-100 in PBS for 2 min. Alternatively, cells were fixed with ice-cold methanol for 5 min. Coverslips were blocked with 10% normal donkey serum, 2% bovine serum albumin and 0.25% fish skin gelatin in Tris-buffered saline for 30 min, incubated with primary antibodies diluted in blocking solution for 30 min, washed three times with Tris-buffered saline/0.25% fish skin gelatin, incubated with secondary antibodies mixed with Hoechst in blocking buffer for additional 30 min, washed and mounted using Mowio1488. Cells were imaged using a LSM510 laser-scanning confocal microscope equipped with a 40× Plan Neofluor NA1.3 DIC oil-immersion objective (Carl Zeiss Microimaging). Images were processed using LSM510 software (Zeiss) and ImageJ (NIH).
Cells were plated on gridded glass bottom dishes (MatTek Corporation) and imaged at DIV3 in phenol red-free Neurobasal medium (Invitrogen) supplemented with 30 mM HEPES-NaOH, pH7.4 using an Olympus IX71 inverted microscope driven by IPLab software (BD Biosciences) and equipped with a 60× PlanApoN objective (NA 1.42), a Hamamatsu EM-CCD camera and a heated stage maintained at 37° C., or driven by softWoRX software (version 3.7.1, DeltaVision), and equipped with a CoolSnap HQ2 camera (Photometrics) and an environmental chamber maintained at 37° C. Images were taken every 15 seconds. After live imaging cells were fixed, counterstained for p75, located by grid number and examined for p75 expression. All movies were exported and processed using IPLab (BD Biosciences), softWoRX (version 3.7.1, DeltaVision) and ImageJ (NIH) software. Filopodia length and speed were both analyzed using ImageJ (NIH) software. For this, two times ten consecutive frames, spaced 5-10 min apart, were analyzed before and again after treatment. In the length analysis, a line was drawn along an individual filopodium and measured at every time point, and the measurements were averaged before and after treatment. For the speed analysis, the filopodial tip was tracked using the ImageJ Manual Tracking plugin. Up to four individual filopodia were analyzed per movie, and a minimum of four movies taken from separate experiments were analyzed per condition.
Primary hippocampal and cortical neurons were isolated from E15 C57BL/6 mouse embryos as previously described (PEREIRA, D. B. et al., Journal of Neuroscience 27:4859-4869 (2007)). Briefly, neurons were dissociated by incubation with 0.05% trypsin at 37° C. for 8 min followed by trituration with fire-polished glass Pasteur pipettes. Cells were plated on poly-D-lysine coated dishes and grown in Neurobasal medium containing B27, 0.5 mM glutamine (all Invitrogen) and 10 μM 5-fluorodeoxyuridine. Hippocampal neurons were transfected at DIV2 using Lipofectamine2000 (Invitrogen). For coverslips in a 24-well plate, 0.5 μg plasmid were mixed with 0.5 μl Lipofectamine2000, and for glass bottom dishes, 1.5 μg plasmid were mixed with 1.5 μl Lipofectamine2000. The complexes were added to the cells for 30-45 min, and then neurons were placed back into preconditioned media until analysis the following day. […]

T1 sequence (P08138 29-427): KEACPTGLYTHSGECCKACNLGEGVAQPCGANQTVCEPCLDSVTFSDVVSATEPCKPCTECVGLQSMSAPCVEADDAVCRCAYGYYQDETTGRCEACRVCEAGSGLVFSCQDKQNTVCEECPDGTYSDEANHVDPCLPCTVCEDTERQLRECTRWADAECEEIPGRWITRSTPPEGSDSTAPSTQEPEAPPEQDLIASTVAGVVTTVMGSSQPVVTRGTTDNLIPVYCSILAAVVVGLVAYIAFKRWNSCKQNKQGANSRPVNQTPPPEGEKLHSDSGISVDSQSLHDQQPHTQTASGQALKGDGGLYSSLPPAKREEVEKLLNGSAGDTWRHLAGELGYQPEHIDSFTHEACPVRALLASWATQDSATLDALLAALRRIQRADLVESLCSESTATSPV
T1 sequence (Q96PQ0 70-1159 limits assumed): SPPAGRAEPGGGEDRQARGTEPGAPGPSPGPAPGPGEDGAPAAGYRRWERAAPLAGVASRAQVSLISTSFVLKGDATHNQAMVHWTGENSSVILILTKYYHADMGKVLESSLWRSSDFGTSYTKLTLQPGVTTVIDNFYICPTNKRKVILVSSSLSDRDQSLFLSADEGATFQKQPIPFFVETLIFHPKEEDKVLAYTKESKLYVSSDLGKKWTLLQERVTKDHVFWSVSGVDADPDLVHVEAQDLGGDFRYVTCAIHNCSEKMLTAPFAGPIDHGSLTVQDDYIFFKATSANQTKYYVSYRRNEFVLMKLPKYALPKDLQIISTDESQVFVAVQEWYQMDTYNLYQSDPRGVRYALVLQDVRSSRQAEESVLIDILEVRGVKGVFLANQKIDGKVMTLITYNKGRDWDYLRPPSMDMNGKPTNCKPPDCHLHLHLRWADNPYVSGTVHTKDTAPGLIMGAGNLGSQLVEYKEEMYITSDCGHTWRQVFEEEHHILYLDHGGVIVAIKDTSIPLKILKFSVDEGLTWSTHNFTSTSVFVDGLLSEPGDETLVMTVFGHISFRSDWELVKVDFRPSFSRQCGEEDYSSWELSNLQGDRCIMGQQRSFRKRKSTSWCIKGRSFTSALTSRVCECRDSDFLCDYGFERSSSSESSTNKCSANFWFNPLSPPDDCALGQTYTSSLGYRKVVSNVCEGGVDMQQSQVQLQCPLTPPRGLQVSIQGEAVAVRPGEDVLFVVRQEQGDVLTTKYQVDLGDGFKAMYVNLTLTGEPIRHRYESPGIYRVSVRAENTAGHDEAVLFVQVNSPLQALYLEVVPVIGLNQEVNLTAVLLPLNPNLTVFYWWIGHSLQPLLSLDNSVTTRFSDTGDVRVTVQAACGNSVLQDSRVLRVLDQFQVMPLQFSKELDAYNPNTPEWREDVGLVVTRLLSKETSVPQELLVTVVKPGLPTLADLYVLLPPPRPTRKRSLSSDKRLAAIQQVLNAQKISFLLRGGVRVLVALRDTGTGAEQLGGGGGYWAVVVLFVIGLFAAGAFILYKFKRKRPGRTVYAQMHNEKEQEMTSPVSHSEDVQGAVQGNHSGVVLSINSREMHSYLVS

Molecule	interaction between p75NTR/SorCS2 and Trio (p75^NTR/SorCS2 and Trio)	Rac activity after proNT exposure (Rac)	growth cone collapse in neurons from p75NTR-/- mice ([1]; live imaging of LifeAct-RFP transfected neurons from p75 null mice (not shown))	localisation of endogenous Trio ([1]; p75NTR-positive E15 DIV3 hippocampal neurons, immunostaining)	growth cone collapse [1]
proNGF: proneurotrophin precursor of nerve growth factor, produced in Sf9 cells and purified	markedly reduced the interaction	significant decrease in Rac activity	growth cone collapse was never observed	redistribution of Trio along the neuritis	comparable in inducing growth cone collapse
proBDNF: murine proBDNF collected from supernatants of transfected 293 cells (protein) APMKEVNVHGQGNLAYPGVRTHGTLESVNGPRAGSRGLTTTSLADTFEHVIEELLDEDQKVRPNEENHKDADLYTSRVMLSSQVPLEPPLLFLLEEYKNYLDAANMSMRVRRHSDPARRGELSVCDSISEWVTAADKKTAVDMSGGTVTVLEKVPVSKGQLKQYFYETKCNPMGYTKEGCRGIDKRHWNSQCRTTQSYVRALTMDSKKRIGWRFIRIDTSCVCTLTIKRGR	markedly reduced the interaction	significant decrease in Rac activity	–	–	comparable in inducing growth cone collapse
